Measured values from patent publication US20240076392A1, “ANTI-CD123 BINDING MOLECULES AND USES THEREOF” (IGM Biosciences, Inc., priority 2021, published 2024).
Changes are numbered by the printed parent chain.

T1: recombinant human CD123 protein (CD123)-His (Homo sapiens, UniProt P26951)
T1 construct: purchased Acrobio (Acro Biosystems) ILA-H52H6
T1 sequence (P26951 19-378): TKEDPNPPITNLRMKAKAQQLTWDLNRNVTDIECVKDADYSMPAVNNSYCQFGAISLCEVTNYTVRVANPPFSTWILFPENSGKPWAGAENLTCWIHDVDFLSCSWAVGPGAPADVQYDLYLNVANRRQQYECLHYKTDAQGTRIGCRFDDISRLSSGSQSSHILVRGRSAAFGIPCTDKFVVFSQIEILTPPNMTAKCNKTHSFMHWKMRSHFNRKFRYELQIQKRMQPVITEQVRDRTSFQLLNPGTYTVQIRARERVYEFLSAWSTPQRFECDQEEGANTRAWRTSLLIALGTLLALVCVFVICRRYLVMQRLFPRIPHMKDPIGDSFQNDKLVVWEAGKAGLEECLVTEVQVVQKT

T2: human CD123 on CHO cells (Homo sapiens, UniProt P26951)
T2 construct: expressed in transfected cells; host or cells: CHO cells
T2 sequence (P26951 19-378): T1 sequence (P26951 19-378)

B1: h32716-3-1 IgG: humanized 32716 anti-CD123 IgG, VH SEQ ID NO: 78, VL SEQ ID NO: 79 (antibody, V domains shown)
VH: QVQLVQSGAEVKKPGSSVKVSCKASGYIFTNYGMNWVKQAPGQGFKWMGWINTYTGESTYSADFKGRFTFTLDESTSTAYMELSSLRSEDTAVYYCARSGGYDPMDYWGQGTLVTVSS
VL: DIVMTQSPDSLAVSLGERATINCRASESVDNYGNTFMHWYQQKPGQPPKLLIYRASNLESGVPDRFSGSGSGTDFTLTISSLQAEDVAVYYCQQSNEDPPTFGQGTRLEIK
B2: 32716 IgG: parental (mouse) anti-CD123 antibody 32716 VH/VL (SEQ ID NO: 74/75) cloned into human IgG format (antibody, V domains shown)
VH: QIQLVQSGPELKKPGETVKISCKASGYIFTNYGMNWVKQAPGKSFKWMGWINTYTGESTYSADFKGRFAFSLETSASTAYLHINDLKNEDTATYFCARSGGYDPMDYWGQGTSVTVSS
VL: DIVLTQSPASLAVSLGQRATISCRASESVDNYGNTFMHWYQQKPGQPPKLLIYRASNLESGIPARFSGSGSRTDFTLTINPVEADDVATYYCQQSNEDPPTFGAGTKLELK
modifications: human IgG constant regions
B3: h32716-2-1 IgG: humanized 32716 anti-CD123 IgG, VH SEQ ID NO: 77, VL SEQ ID NO: 79 (antibody, V domains shown)
VH: B1 VH with F45L, K46E
VL: B1 VL
B4: h32716-1-1 IgG: humanized 32716 anti-CD123 IgG, VH SEQ ID NO: 76, VL SEQ ID NO: 79 (antibody, V domains shown)
VH: B1 VH with K38R, F45L, K46E, F68V, F70I, L72A
VL: B1 VL
B5: h32716-4-2 IgG: humanized 32716 anti-CD123 IgG, VH SEQ ID NO: 80, VL SEQ ID NO: 83 (antibody, V domains shown)
VH: QVQLVQSGPELKKPGASVKVSCKASGYIFTNYGMNWVRQAPGQGLEWMGWINTYTGESTYSADFKGRFVFSLDTSVSTAYLQISSLKAEDTAVYYCARSGGYDPMDYWGQGTLVTVSS
VL: DIQMTQSPSSLSASVGDRVTITCRASESVDNYGNTFMHWYQQKPGKAPKLLIYRASNLESGVPSRFSGSGSGTDFTFTISSLQPEDIATYYCQQSNEDPPTFGQGTKVEIK
B6: h32716-5-2 IgG: humanized 32716 anti-CD123 IgG, VH SEQ ID NO: 81, VL SEQ ID NO: 83 (antibody, V domains shown)
VH: B5 VH with R38K
VL: B5 VL
B7: h32716-6-2 IgG: humanized 32716 anti-CD123 IgG, VH SEQ ID NO: 82, VL SEQ ID NO: 83 (antibody, V domains shown)
VH: B5 VH with R38K, L45F, E46K
VL: B5 VL

The molecules below were run against T1, recombinant human CD123 protein (CD123)-His (assay: Biolayer interferometry (Octet) affinity measurement of IgG antibodies). Settings: IgG format.
Type: binding
Description: The binding affinities of parental 32716 IgG and humanized variants with recombinant human CD123 protein (CD123)-His Acrobio #ILA-H52H6) were determined by BLI on an Octet-384 (Sartorius/Fortebio, NY, USA) using Anti-penta His biosensors (Sartorius). PBST (1×PBS+1% BSA+0.05% Tween-20) buffer was used as Antibody/CD123 dilution and sensor hydration buffer. The experiment followed a five-step sequential assay at 24° C. First, biosensors were hydrated for 10 minutes. Samples and buffer were applied in 384-well plate. After initial baseline for 60 s, sensors were loaded with 7 nM hu IL-3R alpha (CD123)-His Acrobio #ILA-H52H6. The biosensors were dipped into PBST for 20 s to reach baseline, then incubated for 420 s with 2-fold serial diluted anti-CD123 antibodies starting at 10 nM for association, followed by 900 s in PBST for dissociation. Results were analyzed by ForteBio Data Analysis software 9.0 using 1:1 global fit model.

Molecule | affinity compared to the original murine IgG antibody
B1 | slightly better affinity

What follows are molecules tested against T2, human CD123 on CHO cells (assay: Flow cytometry binding of IgG antibodies to CD123 expressing CHO cells). Settings: 4-parameter logistic model.
Description: To assess the ability of IgG antibodies to bind CD123 on CHO cells expressing the human CD123, a binding assay was performed. CHO cells expressing human CD123 were detached from flask using trypsin. Cells (1×105) were pipetted into wells in a round bottom 96 well plate, washed with FACS Stain Buffer (BD Pharmigen Catalog #554656) and pre-incubated with Fc Block (BD, #564220) for 10 minutes at room temperature followed by incubation at 4° C. with serial dilutions of 32716 or h32716 IgG antibodies for 30 minutes. Cells were washed twice and stained with a mouse anti human kappa antibody conjugated with Alexa647 (Southern Biotech, clone SB81a). Cells were analyzed by flow cytometry. Mean fluorescence intensity (MFI) values were analyzed with GraphPad Prism using a 4-parameter logistic model. All humanized IgG antibodies of 32716 anti-CD123 bound with similar affinities and intensities.

Molecule | HillSlope
B2 | 2.2
B1 | 1.9
B3 | 1.7
B4 | 2.0
B5 | 2.4
B6 | 2.2
B7 | 1.9

Same assay, conditions: flow cytometry, 4-parameter logistic model

Molecule | Max binding intensity (MFI)
B2 | 910000
B1 | 940000
B3 | 930000
B4 | 950000
B5 | 980000
B6 | 1100000
B7 | 1000000
